Assay [1] addresses T1, recombinant human HGF (R&D Systems, Catalog No. 294-HGN-025) (human, UniProt P14210 32-728). The assay is described as follows: cell-based or functional assay.
Assay [2] concerns the target T1, recombinant human HGF (R&D Systems, …). The assay is described as follows: cell-based or functional assay. This is another data set of the same source.
Assay [3] concerns the target hHGF-Fc G555E (recombinant hHGF protein containing a glycine to glutamate substitution at position 555) (human). The assay is described as follows: SPR, antibody immobilized, HGF protein injected, 25 C.
Assay [4] addresses hHGF-Fc C561R (recombinant hHGF protein containing a cysteine to arginine substitution at position 561) (human). The assay is described as above.
Assay [5] deals with T1, recombinant human HGF (R&D Systems, …). The assay is described as follows: competition ELISA (DELFIA): antibody inhibits c-Met binding to plate-coated HGF.

T1 sequence (P14210 32-728 limits assumed): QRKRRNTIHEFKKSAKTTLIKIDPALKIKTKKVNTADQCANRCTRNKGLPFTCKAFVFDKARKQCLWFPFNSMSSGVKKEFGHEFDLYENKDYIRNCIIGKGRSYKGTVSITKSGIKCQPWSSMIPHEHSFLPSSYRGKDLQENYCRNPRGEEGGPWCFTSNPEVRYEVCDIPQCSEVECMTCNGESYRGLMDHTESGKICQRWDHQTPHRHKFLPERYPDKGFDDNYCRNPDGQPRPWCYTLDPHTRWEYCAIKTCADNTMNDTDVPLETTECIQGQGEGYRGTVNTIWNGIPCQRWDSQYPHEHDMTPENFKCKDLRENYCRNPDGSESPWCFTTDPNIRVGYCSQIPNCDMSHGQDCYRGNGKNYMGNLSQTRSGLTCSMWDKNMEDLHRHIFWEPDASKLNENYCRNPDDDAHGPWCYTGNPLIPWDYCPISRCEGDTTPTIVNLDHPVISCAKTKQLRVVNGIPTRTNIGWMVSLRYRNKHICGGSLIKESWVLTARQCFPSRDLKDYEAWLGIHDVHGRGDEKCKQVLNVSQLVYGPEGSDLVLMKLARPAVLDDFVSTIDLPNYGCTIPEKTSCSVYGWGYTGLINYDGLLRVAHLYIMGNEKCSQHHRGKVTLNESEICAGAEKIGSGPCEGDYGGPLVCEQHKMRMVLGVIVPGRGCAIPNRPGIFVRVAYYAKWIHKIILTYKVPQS
Sequence of hHGF-Fc C561R (recombinant hHGF protein containing a cysteine to arginine substitution at position 561) (human) (chain, as listed by the source C561R C561R limits assumed): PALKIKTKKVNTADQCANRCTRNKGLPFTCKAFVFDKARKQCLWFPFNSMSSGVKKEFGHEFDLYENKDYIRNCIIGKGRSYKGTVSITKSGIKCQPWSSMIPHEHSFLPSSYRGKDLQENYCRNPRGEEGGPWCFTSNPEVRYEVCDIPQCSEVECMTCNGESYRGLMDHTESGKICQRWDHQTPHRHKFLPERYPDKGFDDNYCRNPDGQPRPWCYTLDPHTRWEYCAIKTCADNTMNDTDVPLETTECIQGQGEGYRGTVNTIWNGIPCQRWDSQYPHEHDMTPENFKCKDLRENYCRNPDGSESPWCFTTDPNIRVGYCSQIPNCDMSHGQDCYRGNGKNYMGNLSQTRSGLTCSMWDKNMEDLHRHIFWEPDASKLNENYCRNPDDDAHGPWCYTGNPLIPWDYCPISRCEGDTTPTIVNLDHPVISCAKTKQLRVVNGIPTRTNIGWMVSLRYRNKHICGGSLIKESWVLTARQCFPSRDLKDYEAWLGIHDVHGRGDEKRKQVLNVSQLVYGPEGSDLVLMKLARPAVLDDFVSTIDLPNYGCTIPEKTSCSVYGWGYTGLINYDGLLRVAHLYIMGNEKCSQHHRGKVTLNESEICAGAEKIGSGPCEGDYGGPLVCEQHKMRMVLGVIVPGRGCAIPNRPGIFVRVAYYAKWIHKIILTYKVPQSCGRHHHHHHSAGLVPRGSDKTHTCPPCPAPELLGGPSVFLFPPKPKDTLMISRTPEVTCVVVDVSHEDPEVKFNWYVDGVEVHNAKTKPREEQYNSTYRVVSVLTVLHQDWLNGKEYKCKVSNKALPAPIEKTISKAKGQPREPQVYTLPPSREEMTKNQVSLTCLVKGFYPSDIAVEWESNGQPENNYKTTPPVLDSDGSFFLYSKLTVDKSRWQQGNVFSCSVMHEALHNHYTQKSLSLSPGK
Sequence of hHGF-Fc G555E (recombinant hHGF protein containing a glycine to glutamate substitution at position 555) (human) (chain, as listed by the source G555E G555E limits assumed): as the sequence (chain, as listed by the source C561R C561R limits assumed) above, with G501E, R507C counted along it

B1: anti-hHGF monoclonal antibody 2B8 (antibody, mouse IgG1, kappa)
heavy: QVQLQQPGAELVKPGTSVKLSCKASGYTFTTYWMHWVNQRPGQGLEWIGEINPTNGHTNYNEKFKSKATLTVDKSSSTAYMQLSSLTSEDSAVYYCARNYVGSIFDYWGQGTTLTVSSAKTTPPSVYPLAPGSAAQTNSMVTLGCLVKGYFPEPVTVTWNSGSLSSGVHTFPAVLQSDLYTLSSSVTVPSSTWPSETVTCNVAHPASSTKVDKKIVPRDCGCKPCICTVPEVSSVFIFPPKPKDVLTITLTPKVTCVVVDISKDDPEVQFSWFVDDVEVHTAQTQPREEQFNSTFRSVSELPIMHQDWLNGKEFKCRVNSAAFPAPIEKTISKTKGRPKAPQVYTIPPPKEQMAKDKVSLTCMITDFFPEDITVEWQWNGQPAENYKNTQPIMDTDGSYFVYSKLNVQKSNWEAGNTFTCSVLHEGLHNHHTEKSLSHSPGK
light: NIVMTQSPKSMSMSVGERVTLSCKASENVVSYVSWYQQKPAQSPKLLIYGASNRNTGVPDRFTGSGSATDFTLTISSVRAEDLADYHCGQSYNYPYTFGGGTRLEIKRADAAPTVSIFPPSSEQLTSGGASVVCFLNNFYPKDINVKWKIDGSERQNGVLNSWTDQDSKDSTYSMSSTLTLTKDEYERHNSYTCEATHKTSTSPIVKSFNRNEC
notes: Murine IgG1 kappa from hybridoma; also called murine 2B8; mouse 2B8
B1: in assay [1], the “IC50, neutralization of HGF stimulated BrdU incorporation in 4 MBr-5 cells” value was determined as 1.41 nM. The “EC50, inhibition of HGF-stimulated c-Met phosphorylation in PC-3 cells, Average of Two Trials” value in assay [2] is 0.287 nM. In addition, the binding result in assay [3] and in assay [4] was “binds” each time. In assay [5], the IC50 was 5.57 nM.

For the origin of these results see patent publication US20140178935A1 (AVEO PHARMACEUTICALS, published 2014).
